This series in a line: soluble on expression in E. coli; label from the status in PepcDB or PDB records.
As to “MCPFDVLASVKDDPSLSPQLREKIGGALTRLREICKTADQPSVAKALPRSCAHNYFKEMISGHAPLRFSCHSSESTHTRVKHFDIASSRLPGPIVMSSSKTLMQRTTPALQSPKEIFAELNVIAFQTLRYIDEVEQIEFDVTNVREHDGSIMEDKERLFLSVCCSVFANFSFFASLHINAEKFLHFLRKLFTCYPLDNSYHNATHAADALQMMSLFFREPTVNFLFSDEEIAICFLAVLAVDVAHPGASDTLLVALDHPLASVFGDVAITEHASLLVLTSLLVLEDNFFFSTPDMAVSVDSAHLLKEALYDVVLNAALRSRPSLMSALRDIETSGRITDADAPKLMAALLVMACNSFAFRSQAQCCRMGAWFLSELHREECEMERHGIRVTLPHVAGADCAAVLSDYINVVVKPVTAATLALVPRDLQDRLEWNADLVDAAASTGGRACKVVVENSLVQWMTSSLSVMEILKKVATHASSVDRKASKCAILNASPSRSQGTAPDMMRADSLSSNSSTSGSMSAAKRDEATSNCPQLSFTSEPCSAAGSPTARPGRSEHYFSFLRLYDKCERAGESAKNFVGQLIFLALQLDPRYIAAYARKEYGDDCCGAECAEMGLLISKMEEAPSTAEVIASRPPGGSFSNRVADEIDHTDSFVLLLMDMYCSREAALAEMESVVLVSDKAKTPPPAEPAAPKAVPQFQQNSPIRMPVNTESKNTGPRLRLVP”, the “soluble on expression in E. coli” value is listed as “not soluble”.
“MAPHGDGLSDIEEPEVDAQSEILRPISSVVFVIAMQAEALPLVNKFGLSETTDSPLGKGLPWVLYHGVHKDLRINVVCPGRDAALGIDSVGTVPASLITFASIQALKPDIIINAGTCGGFKVKGANIGDVFLVSDVVFHDRRIPIPMFDLYGVGLRQAFSTPNLLKELNLKIGRLSTGDSLDMSTQDETLIIANDATLKDMEGAAVAYVADLLKIPVVFLKAVTDLVDGDKPTAEEFLQNLTVVTAALEGTATKVINFINGRNLSDL”: the “soluble on expression in E. coli” value is on record as “soluble”.
As to “MGSDKIHHHHHHMQDFLEFQSISKGYPGVQALSEVSFSVRKGAVHGLMGENGAGKSTLIRVLSGDQAADTGEIRINGEPQHYRSVRDAFNAGVIVIHQELQLVPELTVAENLWLGRFPGKAGVIDRRQLIRVVSDRLAEIGIDVDPEAKVASLSIGERQMVEIAKAVMTDARVIALDEPTSSLSSRESEILFALIDRLRSNGTVILYVSHRLDEIFRLCNSLTVLRDGRLAAHHPDISKVGREQIIAEMVGREISNIWGWRARTLGAARLTVERVSGANLPQPISFTVRAGEILGFFGLIGAGRSEMARLVYGADRRRQGKVLVDGLAVPADSPRLSIRAGVVLCPEDRKFDGIVQGRSIEENMAISSRRHFSPFGVVDKGKEAELAERFIAKLRVRTPSRHQDIVNLSGGNQQKVILGRWLSEEGVKVLLIDEPTRGIDVGAKSEIYEILYELAAQGMAIVVISSELPEVMGIADRILVMCEGRIAAEIDRSDFDEHRILAAALPDASATTATLPEQVS”, the “soluble on expression in E. coli” value is “not soluble”.
For the sequence “MGSDKIHHHHHHVQLSENVLLLGNRHFNYFLVGKKEAAIIECGVSGGVYSFQKQWEKLPQKPEVKYLVAMHAHFDHVCGIPALQKMFPAAVLLASSPAEAVLKKAKIMENFFAQDEKMLDLLADEGIIPRGLQSPNVTEIALDKLIAEGDEIKLGGDLNIKVLDAPGHSPCSLACYLPAEQVMFISDACGFQISDEDIFPVFFQAYDIYLETIKRLMSYPSKLLAIPHERIWTGRNIDAFYRRALSSAEQAFNIIRDLLDQGWEDEKIEKELFARYYKGSLKIYTPENIQQCVQILLRRVKEKL”, the “soluble on expression in E. coli” value was “not soluble”.
Regarding “MATVLIVGRPNVGKSTLFNKLVKKKKAIVEDEEGVTRDPVQDTVEWYGKTFKLVDTCGVFDNPQDIISQKMKEVTLNMIREADLVLFVVDGKRGITKEDESLADFLRKSTVDTILVANKAENLREFEREVKPELYSLGFGEPIPVSAEHNINLDTMLETIIKKLEEKGLDLESKPEITDAIKVAIVGRPNVGKSTLFNAILNKERALVSPIPGTTRDPVDDEVFIDGRKYVFVDTAGLRRKSRVEPRTVEKYSNYRVVDSIEKADVVVIVLDATQGITRQDQRMAGLMERRGRASVVVFNKWDLVVHREKRYDEFTKLFREKLYFIDYSPLIFTSADKGWNIDRMIDAMNLAYASYTTKVPSSAINSALQKVLAFTNLPRGLKIFFGVQVDIKPPTFLFFVNSIEKVKNPQKIFLRKLIRDYVFPFEGSPIFLKFKRSR”, the “soluble on expression in E. coli” value is “soluble”.
For “MSMVETAPSKIQVRDLNFYYGKFHALKNINLDIAKNQVTAFIGPSGCGKSTLLRTFNKMYSLYPEQRAEGEILLDGDNILTNTQDIALLRAKVGMVFQKPTPFPMSIYDNIAFGVRLFEKLSRADMDERVQWALTKAALWNETKDKLHQSGYSLSGGQQQRLCIARGIAIRPEVLLLDEPCSALDPISTGRIEELITELKQDYTVVIVTHNMQQAARCSDHTAFMYLGELIEFSNTDDLFTKPAKKQTEDYITGRYG” the value was “not soluble”; for “MSLLDIIFPPNNNDDDFYGQHFSLIDSIIVKVAQDSNLSQSLRVYQYLYSWRLFGCMVAVVNNNKTLELGDKRGAIEALYEFITRFRIENPTGDVERKVKLKILEIYMIILNLLKSFENNQDQWFLKTNSYKETTTTRRRSIVSLNDLKLEYLEWLKNLDEDVSMFTEGHHHHHH”, “not soluble”.
For the sequence “MCLGIPARVVEVLDGPLPMAVVDMAGEQRPCSVMYVPEVQVGQFVLLQNGYAMEVLDEKSAQESLATIAEFNLVQQVQLAPREPR”, the “soluble on expression in E. coli” value is recorded as “not soluble”.
In the case of “GPGSMTEHENTPRLELEAALGYSGNLPGSLVAHPDQQHLLYALGACIVIRDANDAESSEFFYGHNDKISCLTVSVSGRYVASGQVTHPGFQADVCIFDFAERRLIHRMLLHKVKVQALAFSLDEQYLASVGGPDDNTVVLWDVKTGRPLCGAPAHHTETKAIAFFNNNSEKLITGGVGSLLVWTVDLEQRKMNSVDINMGNMRRSVQTISIEKTDKYVYCGTTSGDVICAQLQQANVFKMQGPQKKLSGGILSTILTNTGDVLVGSGAGELQLLSKINLTVQNSATVNGGVTALALMGDNYYVGTKTSNLYFVNGGNFMTRLRLTCHSEAVQDVVFPHGFSSVFATCCDTDIRVWNANSCTELLRIEVSNRTCNCLQFSRDGSLIISGWSDGRIRAFGPQSGKLVFSVADAHKVEQGSRSHKVGGKVGVTSVCADNAGHRIITGGSDGLVRVWAIRGATCTLEASMKEHKAAVNAIVISHDDTECVTASDDGSCIVWDLTRYLRRNIMYRQTYFRALEYYVDDSQLITCGSDKCIVYWDSVDCHAIREVCGSRTAELNSLSLSPDGRFFVTGGNDRIVKVWDYDRGECIAVGLAHSCSITKVRVSPDGKKIVSVGDEGAVMVWNIAELAIEGL”, the “soluble on expression in E. coli” value was “not soluble”.
For “MLKLPPLSLYIHIPWCVQKCPYCDFNSHALKGDVPHQEYVDHLLADLDADLPLAGGRALHSIFIGGGTPSLLSAEAMQALLDGVRARIPLTPDAEITMEANPGTVEADRFSGYQRAGINRISIGVQSFDPQKLTRLGRIHGPEEAKRAAQLATGLKLRSFNLDLMHGLPDQSLDEALDDLRQAIALNPPHLSWYQLTIEPNTLFSSRPPTLPDDDALWDIYEQGHALLSAAGYEQYETSAYAKPGYQCQHNLNYWRFGDYLGIGCGAHGKLTFSDGHILRTVKVRHPRGYMQGTYMDKQHDVANDDRPFEFFMNRFRLLEAAPRADFTAYTGLEEHSIRPQLDQALAQGYLTETATHWQITEHGKLFLNSLLELFLAEELEHHHHHH”, the “soluble on expression in E. coli” value was “not soluble”.
“MGKGDPNKPRGKMSSYAFFVQTCREEHKKKHPDSSVNFAEFSKKCSERWKTMSAKEKSKFEDLAKSDKARYDREMKNYVPPKGDKKGKKKDPNAPKRPPSAFFLFCSEHRPKIKSEHPGLSIGDTAKKLGEMWSEQSAKDKQPYEQKAAKLKEKYEKDIAAYRAKGKSEVGKKGPGRPTGSKKKNEPEDEEEEEEEEDDEDEEEEDEDEE”: the “soluble on expression in E. coli” value is reported as “soluble”.
For “MNEKVFRDPVHNYIHVNNQIIYDLINTKEFQRLRRIKQLGTSSYTFHGGEHS” the value was “soluble”; for “MELKFVVPDMAETFGKLGYAGEGEILTEGYGRNTVVIGRSYHLYSSKQRADDIEVVVAAEAGEKDFDQDQPLKAVNPHLVAKGYAIENRGFTDYVLYVDDLVKA”, “not soluble”.
Take “MVKLILAEVFNSWQGEGGSVPGSAFGRRQIFVRFAGCDLRCIWCDSSQFIDASKVKKWRIEVEPFSGRFEYRENPASIDEVVDAILKLDTGDLHSISYTGGEPTLQIEGLYILMERMKGLGFDNFLETHGGHPELIKRVSYLTDYASVDIKDESARASRDWRGLVLKEVESIKILKEAGAKVYAKLVVTRETKLENVKWYANLLKGVAPLAIQPKEPMDISMEYLMKLYREAARIMGKKNVGLSFQVHKYLKVL”: the “soluble on expression in E. coli” value is listed as “soluble”.
On to “MCGQKFELKIDNVRFVGHPTLLQHALGQISKTDPSPKREAPTMILFNVVFALRANADPSVINCLHNLSRRIATVLQHEERRCQYLTREAKLILALQDEVSAMADGNEGPQSPFHHILPKCKLARDLKEAYDR”, for which the “soluble on expression in E. coli” value was “not soluble”.
For “MGIHFVDKADLWKSALLFNLKLRDRFRIAVDDHRGRATDLTAEEESALFRMLQTVAVPLIGNACHVFMNGFNRVQVYGLEKLHDALLNRPKNKPLVTVSNHVASVDDPFVIASLLPPKFLLDARNLRWTLCATDRCFKNPVTSAFSRSVKVLPISRGEGIYQQGMDIAISKLNNGGWVHIFPEGSRSRDGGKTMGSAKRGIGRLILDADTLPMVVPFVHTGMQDIMPVGASVPRIGKTVTVIIGDPIHFNDILSTEGAQHVSRKHLYDAVSSRIGQRLYDLKAQVDRVYIEQQSMMSHNAKTPSDRAAEIFHRVDWDSFGMGAQFSEESSPSSKPIGQSDDRIVRSPKRRVSPEGGVSLKIKKLMDSTEMMGFAARGLLMNEYKSRVESANVGRPLKAWREYFMNRGL”, the “soluble on expression in E. coli” value is listed as “soluble”.
“MADEVIEYKFICPNITIYRESLQHLYTSFAKGLKCVWKTRNTSGQTFFSWEFDLNELKNQGIDGLMGRISVNSDSIDLLNVQIDLKNSTEIIERVVHLYHNNYQYGYNYIPSATFEYSFVPYYAQAEGSLYDQMFLPSHENDAILVIGKKKLHVCKAFLSYHSSFFRAIFSSTFKEGQMSEIPIKDVTYKDFALMLSTIYPDAVFPNDRTAEKLLEMGDRFIIQSVINHVEYHLLHNTKIGNEKLMWMADRYGMSKLLVKSIRQMDSIEKAKALKSSPDYAKLSKEAKEKILDRLMALI”: the “soluble on expression in E. coli” value is on record as “not soluble”.
As for “MEFFGETWRRELAAEFEKPYFKQLMSFVADERSRHTVYPPADQVYSWTEMCDIQDVKVVILGQDPYHGPNQAHGLCFSVQKPVPPPPSLVNIYKELCTDIDGFKHPGHGDLSGWAKQGVLLLNAVLTVRAHQANSHKDRGWETFTDAVIKWLSVNREGVVFLLWGSYAHKKGATIDRKRHHVLQAVHPSPLSAHRGFLGCKHFSKANGLLKLSGTEPINWRAL”, the “soluble on expression in E. coli” value is listed as “soluble”.
For “MGSDKIHHHHHHMDTLFKALSDPARRAILDSLRARDGQSLTDLEPQLDMTRFGVMKHLKLLEDAGLIVTKRQGRFKYHYLNPMPLQEMLDRWVAPFLQPQARHLSDLKAKLERSHTMGKPDFMMQTFIRCTQDALWDALTKADQMAAYHFMCNEVRGNASVGNVTEFVLPDGNPMLRQVTTELDPKSRIAATFEPMFMGPDAPASHMVYLIEPQGETCKLTIEHYDMAPGQEGFAEGWARLASSLKSYLETGKAMKGAA” the value was “not soluble”; for “MSLDVPAMPERVETQGVEFVEFSTAPEEKANLEVLLATLGFEKSAQHRNRAVDLYTQGDIRIVINTSDDGDSFAGASYSIHGTNAYAFGLKVDDAQAALARAEALGAPTFAEPRNTGEVAVPAIQGVGNGVIYFLDASPALASIWDKEFVPTQGQKAMSDAGLTRVDHLAQTTHYDEMLTWLLFYTSLFSSRRTPMIDVVDPGGLVRSQAIESVPAANFRLTMNGADNRKTFAGKFLAEGFGSSIQHIAFATDDIFATAKAMQARGFHALPISRNYYDDLEARFGLEPEFSDALREASILYDRDDSGEYFQIYSRTFGEGFFFEVIERRGAYGGYGAMNAPFRIAAQRRLAEGHHHHHH”, “soluble”.

Source of the values: the DeepSol protein solubility set.
